{
  "source": "patent US20240294632A1",
  "about": "(XL PROTEIN, published 2024)",
  "binders": {"B1": {"name": "Anti-PA(S) MAb 2.1 (antibody, V domains shown)", "VH": "QVTLKESGPGILQPSQTLSLTCSFSGFSLSTYDMGVGWIRQPSGKGLEWLANIWWNDNKYYNSALKSRLTISKDTSNNQVFLKISSVDATDTATYYCAQMRDNYGVWFAFWGQGTLVTVSA", "VL": "DIVMSQSPSSLAVSVGEKVTMSCKSSQSLFYSNREKNYLAWYQQKPGQSPKLLIYWASTRESGVPDRFTGSGSGTDFTLTISNVKAEDLAVYYCQQYYNYPTFGAGTKLELKR", "notes": "Mouse monoclonal IgG from hybridoma (supernatant or protein G purified); also called DSM ACC3366"}, "B2": {"name": "Anti-PA(S) MAb 1.1 (antibody, V domains shown)", "VH": "QVQLKESGPGLVAPSQSLSITCTVSGFSLTGYGVNWVRQPPGKGLEWLGMIWGDGITDYNSALKSRLSISKDNSKSQVFLKMNSLQTDDTARYYCARDYYGRRYYAMDYWGQGTSVTVSS", "VL": "DIVLTQSPASLAVSLGQRATISCRASKSVSSSGYNYMFWYQQKPGQPPKLLIYLASNLESGVPDRFWGSGSGTDFTLNIHPVEEEDAATYYCQHSRELPLTFGAGTKLELKR", "notes": "Mouse monoclonal IgG from hybridoma (culture supernatant); also called anti-PAS 1.1 MAb; DSM ACC3365"}, "B3": {"name": "Anti-PA(S) MAb 3.1 (antibody, V domains shown)", "VH": "QVQLQQSGAELVRPGASVKLSCKALGYIFTDYEMHWVKQTPVHGLEWIGVIHPGSGNTVYNQKFQGKATLTADKSSSTAYMEVSSLTSEDSAVYYCNLWGRWGQGTTLTVSS", "VL": "not shown", "notes": "Mouse monoclonal IgG from hybridoma (culture supernatant); also called DSM ACC3367"}},
  "key": {"[1]": {"biological_target": "T1, IL1Ra (Kineret/Anakinra) (UniProt P18510 26-177)", "T1 construct": "Commercial drug product; also called non-PASylated protein version", "T1 sequence (P18510 26-177 limits assumed)": "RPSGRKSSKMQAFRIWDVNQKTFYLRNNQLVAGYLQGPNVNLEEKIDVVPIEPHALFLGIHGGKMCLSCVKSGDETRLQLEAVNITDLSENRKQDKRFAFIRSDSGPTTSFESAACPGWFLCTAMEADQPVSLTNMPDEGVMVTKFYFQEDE", "assay": "western blot, hybridoma supernatant 1:2000 or purified MAb 1:200000"}, "[2]": {"biological_target": "T2, hu4D5-P/A #1(200)", "T2 construct": "Detected with anti-human kappa light chain antibody in the capture ELISA", "assay": "MAb capture ELISA, hybridoma supernatant on anti-mouse IgG Fc, antigen titrated"}, "[3]": {"biological_target": "T3, hu4D5-PAS #1(200)", "T3 construct": "Detected with anti-human kappa light chain antibody in the capture ELISA", "assay": "MAb capture ELISA, hybridoma supernatant on anti-mouse IgG Fc, antigen titrated"}, "[4]": {"biological_target": "T4, P/A #1(200)-IL1Ra", "T4 construct": "PASylated fusion protein produced in E. coli; Biotinylated for the SPR measurements with Fabs", "T4 sequence (chain, as listed by the source limits assumed)": "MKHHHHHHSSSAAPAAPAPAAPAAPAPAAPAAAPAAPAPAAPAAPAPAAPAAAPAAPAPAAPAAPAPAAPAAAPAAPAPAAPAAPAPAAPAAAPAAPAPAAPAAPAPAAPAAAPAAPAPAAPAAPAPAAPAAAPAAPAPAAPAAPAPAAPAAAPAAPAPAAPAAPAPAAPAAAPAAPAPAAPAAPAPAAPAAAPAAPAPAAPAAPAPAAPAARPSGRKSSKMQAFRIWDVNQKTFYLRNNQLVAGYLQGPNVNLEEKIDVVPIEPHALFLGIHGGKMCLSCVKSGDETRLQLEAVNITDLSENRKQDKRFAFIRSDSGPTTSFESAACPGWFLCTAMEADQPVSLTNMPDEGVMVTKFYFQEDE", "assay": "SPR, MAb from hybridoma supernatant captured by anti-mouse antibody, antigen as analyte, bivalent analyte model"}, "[5]": {"biological_target": "T5, PAS #1(200)-IL1Ra", "T5 construct": "PASylated fusion protein produced in E. coli; Biotinylated for the SPR measurements with Fabs", "assay": "SPR, MAb from hybridoma supernatant captured by anti-mouse antibody, antigen as analyte, bivalent analyte model"}, "[6]": {"biological_target": "T2, hu4D5-P/A #1(200)", "assay": "MAb capture ELISA: MAb from hybridoma supernatant captured by anti-mouse IgG Fc, hu4D5-P/A#1(200) titrated (x axis: antigen concentration)"}, "[7]": {"biological_target": "T6, PASylated Thymosin alpha 1", "T6 construct": "also called PASylated Tα1", "T6 chain": "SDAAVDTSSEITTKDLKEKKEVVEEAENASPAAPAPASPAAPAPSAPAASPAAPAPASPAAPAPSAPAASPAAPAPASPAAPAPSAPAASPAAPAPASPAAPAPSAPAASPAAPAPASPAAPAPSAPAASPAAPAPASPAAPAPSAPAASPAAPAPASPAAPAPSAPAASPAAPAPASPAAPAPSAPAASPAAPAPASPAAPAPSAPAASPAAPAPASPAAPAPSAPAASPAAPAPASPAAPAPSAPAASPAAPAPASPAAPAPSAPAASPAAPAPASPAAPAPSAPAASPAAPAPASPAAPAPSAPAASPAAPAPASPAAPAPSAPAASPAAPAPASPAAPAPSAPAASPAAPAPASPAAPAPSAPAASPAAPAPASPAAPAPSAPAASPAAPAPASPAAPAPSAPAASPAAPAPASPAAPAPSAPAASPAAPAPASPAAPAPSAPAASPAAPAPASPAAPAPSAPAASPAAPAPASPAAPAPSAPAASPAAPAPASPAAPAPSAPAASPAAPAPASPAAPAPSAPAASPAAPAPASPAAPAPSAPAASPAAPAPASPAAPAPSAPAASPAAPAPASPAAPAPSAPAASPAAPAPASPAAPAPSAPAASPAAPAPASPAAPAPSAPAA", "assay": "sandwich ELISA in diluted rat plasma: MAb 2.1 coated as capture antibody, MAb 1.2-alkaline phosphatase as detection reagent; calibration curve"}, "[8]": {"biological_target": "T7, P/A #1 sequence", "T7 construct": "in sentences on specificity it stands for P/A #1 polypeptides in general", "T7 peptide": "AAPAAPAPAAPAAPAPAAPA", "assay": "SPOT peptide array / hybridoma screening"}, "[9]": {"biological_target": "T1, IL1Ra (Kineret/Anakinra)", "assay": "western blot, hybridoma supernatant 1:2000"}, "[10]": {"biological_target": "T4, P/A #1(200)-IL1Ra", "assay": "Western blot of the fusion protein after SDS-PAGE; anti-mouse IgG Fc-AP, BCIP/NBT [F]"}, "[11]": {"biological_target": "T8, anti-Galectin-PAS(200) Fab fragment", "T8 construct": "also called PASylated humanized anti-Galectin Fab fragment; PAS-Fab", "T8 sequence (chain, as listed by the source)": "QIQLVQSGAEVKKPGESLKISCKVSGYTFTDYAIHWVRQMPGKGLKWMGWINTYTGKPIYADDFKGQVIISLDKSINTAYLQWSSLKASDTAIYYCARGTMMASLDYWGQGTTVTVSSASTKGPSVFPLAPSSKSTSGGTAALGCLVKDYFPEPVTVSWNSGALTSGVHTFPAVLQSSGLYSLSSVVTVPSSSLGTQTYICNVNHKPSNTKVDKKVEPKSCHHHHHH", "assay": "SPR, MAb 1.1 covalently coupled to a CM5 chip, PASylated anti-Galectin Fab injected"}, "[12]": {"biological_target": "T9, APSA(200)-IL1Ra", "T9 construct": "Fusion protein produced in E. coli; Labelled with DIG-NHS in the MAb capture ELISA", "assay": "MAb capture ELISA, hybridoma supernatant on anti-mouse IgG Fc, DIG-labelled antigen titrated"}, "[13]": {"biological_target": "T5, PAS #1(200)-IL1Ra", "assay": "Western blot of the fusion protein after SDS-PAGE; anti-mouse IgG Fc-AP, BCIP/NBT [D]"}, "[14]": {"biological_target": "T9, APSA(200)-IL1Ra", "assay": "SPR, MAb from hybridoma supernatant captured by anti-mouse antibody, antigen as analyte, bivalent analyte model"}},
  "data": [
    {"binder": "B1", "values": [
      {"measurement": "binding result", "setting": "[1]", "value": "no binding"},
      {"measurement": "Kd", "setting": "[2]", "value": 0.17, "unit": "nM"},
      {"measurement": "Kd", "setting": "[3]", "value": 0.113, "unit": "nM"},
      {"measurement": "Kd", "setting": "[4]", "value": 0.429, "unit": "nM"},
      {"measurement": "Kd", "setting": "[5]", "value": 1.7, "unit": "nM"},
      {"measurement": "EC50 (read off the curve)", "setting": "[6]", "value": "~0.08", "unit": "nM"},
      {"measurement": "binding result", "setting": "[7]", "value": "binds"}
    ]},
    {"binder": "B2", "values": [
      {"measurement": "binding result", "setting": "[8]", "value": "no binding"},
      {"measurement": "binding result", "setting": "[9]", "value": "no binding"},
      {"measurement": "Kd", "setting": "[3]", "value": 0.037, "unit": "nM"},
      {"measurement": "binding result", "setting": "[10]", "value": "no binding (tested: hybridoma supernatant diluted 1:2000)"},
      {"measurement": "binding result", "setting": "[11]", "value": "binds"},
      {"measurement": "Kd", "setting": "[5]", "value": 1, "unit": "nM"}
    ]},
    {"binder": "B3", "values": [
      {"measurement": "binding result", "setting": "[9]", "value": "no binding"},
      {"measurement": "Kd", "setting": "[12]", "value": 0.118, "unit": "nM"},
      {"measurement": "binding result", "setting": "[13]", "value": "no binding (tested: hybridoma supernatant diluted 1:2000)"},
      {"measurement": "Kd", "setting": "[14]", "value": 0.019, "unit": "nM"}
    ]}
  ]
}
